The source of these data is article doi:10.1101/2024.01.23.576903.

What is called stoichiometry N is the number of molecules, sites or subunits per partner or assembly.

This test concerns the target ζ subunit (F420-reductase subunit) of the ACDS CODH subcomplex from Candidatus Ethanoperedens thermophilum (Candidatus Ethanoperedens thermophilum). As to the kind of experiment: crystal structure.

“ζ subunit (F420-reductase subunit) of the ACDS CODH subcomplex from Candidatus Ethanoperedens thermophilum (natural protein)” returned a stoichiometry N of 2.
